The text below walks through data of article PMC5775914 (Cell chemical biology, 2017).

In this experiment the target is fluorescein-labeled histone H3 N-terminal peptide (residues 1-21) (UniProt P68431 2-22, fluorescein-labeled (position not given)). The experiment in a line: fluorescence polarisation.

Usually Kd stands for the concentration at which binding is half-saturated.

B1: recombinant UBR7 PHD finger (domain or fragment)
chain: GLYCICKRPYPDPEDEIPDEMIQCVVCEDWFHGRHLGAIPPESGDFQEMVCQACMKR
Consider B1, for which the dissociation constant Kd fell in the range of 50 to 100 µM.
